This data set can be described thus: label from the status in PepcDB records.
Take “MGKKYEIFLNENEHSLITPKVSFKEILRYYYLYPKNAIPSFKLPFFKPDLSGFSTPHITWLGHSSLFISFKEYKILIDPIFNTHASPISFINKAFKNAPVYNINDFNEIFAVIITHSHFDHLDAKSVKALKDKAKFFITPLKVGNYLKSYGVSEKKIIELDWWSGIEFGDLKIMATPAQHSSSRGDGKNKTLWASFVMEFLSVDKRVFFSADGGYFTHFKKIGEYFGSFDLACLESGQFNIAWPYSHSFPEQILKEAKDLNAKAVMPIHWGRFLAGTHAWNEVVKFLYENLDLPLITPKMGEAYEVGAKLEHHHHHH”: the protein production result is given as “not failed”. For the sequence “MGKRFSSFQAAQIRIARPTGQLDEIIRFYEEGLCLKRIGEFSQHNGYDGVMFGLPHADYHLEFTQYEGGSTAPVPHPDSLLVFYVPNAVELAAITSKLKHMGYQEVESENPYWSNGGVTIEDPDGWRIVFMNSKGISGK”, the protein production result is recorded as “not failed”. On to “MGKRSSNDLPPVEASMARHIIHFTGPINSSTCGNLITTCSRALQQGAELLQLNIATMGGECSYGFTLYNFLRALPVEVHTHNLGTVESMGNILFLAGERRTACSFSKFLFHPFHWTLHGSVDHSRMSEYAMSLDYDLRLYAQIVAERTKGAAEVLDVPRYLMAYPRILAPREALENGMIHEIDEMPIASDATQWSVHA”, for which the protein production entry was “failed”.

As for “MGKSDFLSPKAIANRIKSKGLQKLRWYCQMCQKQCRDENGFKCHCMSESHQRQLLLASENPQQFMDYFSEEFRNDFLELLRRRFGTKRVHNNIVYNEYISHREHIHMNATQWETLTDFTKWLGREGLCKVDETPKGWYIQYIDRDPETIRRQLELEKKKKQDLDDEEKTAKFIEEQVRRGLEGKEQETPVFTELS”, the protein production entry is recorded as “not failed”. Regarding “MGKTAIKSTAKVLSFVVQKHWATRLHYDFRLELEGTMKSWAVPKGPSFDPNDKRMAVHVEDHPISYNSFEGEIPSGQYGAGKVIIWDKGTWIPLEDPHKGYRDGKLKFELRGLKLKGHWALVRMRKEENKKQEPWLLIKEKDEYVRSSREYSVVDEMPDSVAELEHHHHHH”, the protein production result is recorded as “not failed”. With “MGKTMITRALWSYAHRYRPQERWGILKPMQSGTAVEIGDGDYYCQTLPLEQTPREVCPLSFAAPLAPPIAAQLENRRIDLAPLWQTYQQLQERFDYLLVEGIGGLGSPITWEWTVADLAAAWKLPIVLVATVRLGAIAQIVANIALARQYQLVIRGLILNCVSPCSDAEIEQWTPPVFLSRFTQVPVLGVLPYGQHSNEQLAAMVAEWPLDLLWR”, the protein production result is reported as “failed”.

In the case of “MGKVIGIDLGTTNSCASVLEGGKPIVITNTEGGRTTPSIVGFTKGSQRLVGQLAKRQSVTNAENTVYSIKRFIGRRWDDTVEERSRVPYNCVKGRDDTVSVSIRGQSYTPQEISAMILQKLKADSEAFLGEPVTQAVITVPAYFTDAQRQATKDAGTIAGLEVLRIINEPTAAALAYGLDKQETEELILVFDLGGGTFDVSLLQLGNGVFEVLSTSGNNHLGGDDFDNCVVQWMAESFKQKENIDLSTDKMAIQRLREAAEKAKIELSSMLNTTINLPFITADESGPKHLEMELARSQFEELTKQLLEDTRVPLTQALDDGEIRASDVHRVILVGGSTRIPAIQRVIQEFFPDSQLERSVNPDEAVALGAAIQAGVIGGEVEDVLLLDVTPLSLGLETLGEVTTKIIERNTTIPTSRSEVFSTAVDGQTSVEIHVIQGERAMARDNKSLGKFLLAGIPPAPRGMPQIEVSFEIDVNGILKVSAQDQGTGKEQSIVISHTGGLSGGEIEKMRQEAQQYAAQDQLRLRMMELQNQADSLFHTYETTLQESGELVREELKSSGKQKKDQLAIALRTPNTPVEKLQTLVEEFRQIILLIGTEVYQQGKGAASNEFANFVQGTSSGTSQMIESLETNLNPIQASSGITMTPGTMINGTVNPGGMDYVETAPVYGLDDGEEFDFDADETVYSDYEAID”, the protein production result was “failed”. For “MGLDVDWALDWLKLSAKAMAEHRVELIELDRPIGDSDHGENMDRGFQAVLQKLDETPPETPGAALKAAAMALMSKVGGAAGPLYGTAYLRAATSLGDAGDIDAEALAAALAAARDGVVARGKAELGDKTMIDAWTPAVEAAQKAAASGADPVAVLEAAAEAAETGAMATDPLVARKGRASYLGERSAGHRDPGAASTALLLRAAAAAAAGSTADKGADAV”, the protein production entry is “failed”. To “MGLEEELLRIAKKLEKMVSRKKTEGALDLLKKLNSCQMSIQLLQTTRIGVAVNGVRKHCSDKEVVSLAKVLIKNWKRLLDSPRTTKGERE” belongs “not failed”.

Turning to “MGLLDHLWDDTVAGPRPENGLGKLRKHHTFSFRPSSGNDQSEAGSARSYGEDSLPEEAVKVTRSIMIIKPPGYQGSSAPASPAGSTPPLSPFSPPLSPFSANAGGKEPFRFRRRSTSDAFEKAAGGSETGPRSSPPTYGM”, the protein production result is reported as “failed”.

Source of the values: a protein production outcome set (Wang et al. 2014).
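Further: failed if final PepcDB status was selected cloned or expressed and not failed if soluble or beyond.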
